Reference: patent US20230002496A1 (STAIDSON BEIJING BIOPHARMACEUTICALS, published 2023)
Where a chain is given by its changes, count along the chain named.

T1: human GM-CSFRα, full length on cells (human, UniProt P15509 23-400)
T1 sequence: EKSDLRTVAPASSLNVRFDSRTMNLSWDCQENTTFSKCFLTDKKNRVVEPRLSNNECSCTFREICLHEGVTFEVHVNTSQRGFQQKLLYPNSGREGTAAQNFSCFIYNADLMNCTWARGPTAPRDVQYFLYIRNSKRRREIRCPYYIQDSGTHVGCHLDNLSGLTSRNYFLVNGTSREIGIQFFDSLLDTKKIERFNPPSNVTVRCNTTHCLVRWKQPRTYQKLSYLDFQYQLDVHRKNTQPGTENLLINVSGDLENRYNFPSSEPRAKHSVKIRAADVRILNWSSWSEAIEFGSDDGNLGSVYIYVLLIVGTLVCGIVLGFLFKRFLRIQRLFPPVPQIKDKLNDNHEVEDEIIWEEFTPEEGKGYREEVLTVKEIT

B1: E35-scFv LG50E (scFv, V domains shown)
VH: QMQLVQSGAEVKKPGASVKVSCKVSGYTLTELSIHWVRQAPGKGLEWMGGFDPEDGETIYAQKFQGRVTMTGDTSTDTAYLELSSLRSEDTALYYCATGRYTSLATTYGFDYWGQGTLVTVSS
VL: EIVMTQSPATLSLSPGERATLSCRASQSVSSYLAWYQQKPGQAPRLLIYEASSRATGIPDRFSGSGSGTDFTLTISRLEPEDFAVYYCQQYDNWPYTFGQGTKLEIK
B2: E35-scFv LN93E (scFv, V domains shown)
VH: B1 VH
VL: B1 VL with E50G, N93E
B3: E35-scFv HE31N (scFv, V domains shown)
VH: B1 VH with E31N
VL: B1 VL with E50G
B4: E35-scFv LN93F (scFv, V domains shown)
VH: B1 VH
VL: B1 VL with E50G, N93F
B5: E35-scFv LN93T (scFv, V domains shown)
VH: B1 VH
VL: B1 VL with E50G, N93T
B6: E35-scFv LD92H (scFv, V domains shown)
VH: B1 VH
VL: B1 VL with E50G, D92H
B7: E35-scFv LN93R (scFv, V domains shown)
VH: B1 VH
VL: B1 VL with E50G, N93R
B8: E35-scFv LD92V (scFv, V domains shown)
VH: B1 VH
VL: B1 VL with E50G, D92V
B9: E35-scFv LN93M (scFv, V domains shown)
VH: B1 VH
VL: B1 VL with E50G, N93M
B10: E35-scFv LN93Y (scFv, V domains shown)
VH: B1 VH
VL: B1 VL with E50G, N93Y
B11: E35-scFv HE31F (scFv, V domains shown)
VH: B1 VH with E31F
VL: B1 VL with E50G
B12: E35-scFv LD92I (scFv, V domains shown)
VH: B1 VH
VL: B1 VL with E50G, D92I
B13: E35-scFv HE31R (scFv, V domains shown)
VH: B1 VH with E31R
VL: B1 VL with E50G
B14: E35-scFv LD92G (scFv, V domains shown)
VH: B1 VH
VL: B1 VL with E50G, D92G
B15: E35-scFv LD92T (scFv, V domains shown)
VH: B1 VH
VL: B1 VL with E50G, D92T
B16: E35-scFv HE31G (scFv, V domains shown)
VH: B1 VH with E31G
VL: B1 VL with E50G
B17: E35-scFv HE31D (scFv, V domains shown)
VH: B1 VH with E31D
VL: B1 VL with E50G
B18: E35-scFv LD92Q (scFv, V domains shown)
VH: B1 VH
VL: B1 VL with E50G, D92Q
B19: E35-scFv HE31Y (scFv, V domains shown)
VH: B1 VH with E31Y
VL: B1 VL with E50G
B20: E35-scFv HE31M (scFv, V domains shown)
VH: B1 VH with E31M
VL: B1 VL with E50G
B21: E35-scFv HE31S (scFv, V domains shown)
VH: B1 VH with E31S
VL: B1 VL with E50G
B22: E35-scFv LD92L (scFv, V domains shown)
VH: B1 VH
VL: B1 VL with E50G, D92L
B23: E35-scFv LN93G (scFv, V domains shown)
VH: B1 VH
VL: B1 VL with E50G, N93G
B24: E35-scFv LD92K (scFv, V domains shown)
VH: B1 VH
VL: B1 VL with E50G, D92K
B25: E35-scFv HE31K (scFv, V domains shown)
VH: B1 VH with E31K
VL: B1 VL with E50G
B26: E35-scFv LN93S (scFv, V domains shown)
VH: B1 VH
VL: B1 VL with E50G, N93S
B27: E35-scFv LD92S (scFv, V domains shown)
VH: B1 VH
VL: B1 VL with E50G, D92S
B28: E35-scFv LG50Y (scFv, V domains shown)
VH: B1 VH
VL: B1 VL with E50Y
B29: E35-scFv HE31V (scFv, V domains shown)
VH: B1 VH with E31V
VL: B1 VL with E50G
B30: E35-scFv LD92M (scFv, V domains shown)
VH: B1 VH
VL: B1 VL with E50G, D92M
B31: E35-scFv LN93I (scFv, V domains shown)
VH: B1 VH
VL: B1 VL with E50G, N93I
B32: E35-scFv LD92W (scFv, V domains shown)
VH: B1 VH
VL: B1 VL with E50G, D92W
B33: E35-scFv LN93D (scFv, V domains shown)
VH: B1 VH
VL: B1 VL with E50G, N93D
B34: E35-scFv LN93L (scFv, V domains shown)
VH: B1 VH
VL: B1 VL with E50G, N93L
B35: E35-scFv LN93K (scFv, V domains shown)
VH: B1 VH
VL: B1 VL with E50G, N93K
B36: E35-scFv LD92P (scFv, V domains shown)
VH: B1 VH
VL: B1 VL with E50G, D92P
B37: E35-scFv HE31W (scFv, V domains shown)
VH: B1 VH with E31W
VL: B1 VL with E50G
B38: E35-scFv LD92R (scFv, V domains shown)
VH: B1 VH
VL: B1 VL with E50G, D92R
B39: E35-scFv LN93P (scFv, V domains shown)
VH: B1 VH
VL: B1 VL with E50G, N93P
B40: E35-scFv HE31P (scFv, V domains shown)
VH: B1 VH with E31P
VL: B1 VL with E50G
B41: E35-scFv LD92A (scFv, V domains shown)
VH: B1 VH
VL: B1 VL with E50G, D92A
B42: E35-scFv HE31A (scFv, V domains shown)
VH: B1 VH with E31A
VL: B1 VL with E50G
B43: E35-scFv LN93H (scFv, V domains shown)
VH: B1 VH
VL: B1 VL with E50G, N93H
B44: E35-scFv LN93A (scFv, V domains shown)
VH: B1 VH
VL: B1 VL with E50G, N93A

Target: T1, human GM-CSFRα, full length on cells
Test: cell-based or functional assay

Row | Binder | IC50, TF-1 cell proliferation
1 | B1 | 29.9 µg/mL
2 | B2 | 0.081 µg/mL
3 | B3 | 0.11 µg/mL
4 | B4 | 0.3 µg/mL
5 | B5 | 0.14 µg/mL
6 | B6 | 0.53 µg/mL
7 | B7 | 0.6 µg/mL
8 | B8 | 0.387 µg/mL
9 | B9 | 0.27 µg/mL
10 | B10 | 0.156 µg/mL
11 | B11 | 0.18 µg/mL
12 | B12 | 0.597 µg/mL
13 | B13 | 0.31 µg/mL
14 | B14 | 0.522 µg/mL
15 | B15 | 0.494 µg/mL
16 | B16 | 0.116 µg/mL
17 | B17 | 0.13 µg/mL
18 | B18 | 0.328 µg/mL
19 | B19 | 0.2 µg/mL
20 | B20 | 0.13 µg/mL
21 | B21 | 0.14 µg/mL
22 | B22 | 0.42 µg/mL

Row | Binder | IC50, TF-1 cell proliferation
23 | B23 | 0.205 µg/mL
24 | B24 | 0.64 µg/mL
25 | B25 | 0.23 µg/mL
26 | B26 | 0.3 µg/mL
27 | B27 | 0.598 µg/mL
28 | B28 | 32 µg/mL
29 | B29 | 0.22 µg/mL
30 | B30 | 0.507 µg/mL
31 | B31 | 0.33 µg/mL
32 | B32 | 0.342 µg/mL
33 | B33 | 0.045 µg/mL
34 | B34 | 0.33 µg/mL
35 | B35 | 0.78 µg/mL
36 | B36 | 0.881 µg/mL
37 | B37 | 0.26 µg/mL
38 | B38 | 0.495 µg/mL
39 | B39 | 0.66 µg/mL
40 | B40 | 0.17 µg/mL
41 | B41 | 0.282 µg/mL
42 | B42 | 0.21 µg/mL
43 | B43 | 0.45 µg/mL
44 | B44 | 0.21 µg/mL
